# Measurements taken from US20130011380A1.
# Assays:
# Experiment in all cases: anti-Flag IP-MS, mES nuclear extract
# Supt5h (mouse) = Supt5h (mouse) (UniProt O55201)
# Nol9 (mouse) = Nol9 (mouse) (UniProt Q3TZX8)
# Vdac1 (mouse) = Vdac1 (mouse) (UniProt Q60932)
# Impdh2 (mouse) = Impdh2 (mouse) (UniProt P24547)
# Ranbp1 (mouse) = Ranbp1 (mouse) (UniProt P34022)
# Nup160 (mouse) = Nup160 (mouse) (UniProt Q9Z0W3)
# Peg10 (mouse) = Peg10 (mouse) (UniProt Q7TN75)
# Smarcad1 (mouse) = Smarcad1 (mouse) (UniProt Q04692)
# Pcbp1 (mouse) = Pcbp1 (mouse) (UniProt P60335)
# Etl4 (mouse) = Etl4 (mouse) (UniProt A2AQ25)
# Ywhae (mouse) = Ywhae (mouse) (UniProt P62259)
# Abce1 (mouse) = Abce1 (mouse) (UniProt P61222)
# Psmc2 (mouse) = Psmc2 (mouse) (UniProt P46471)
# Lmna (mouse) = Lmna (mouse) (UniProt P48678)
# Canx (mouse) = Canx (mouse) (UniProt P35564)
# Plekha7 (mouse) = Plekha7 (mouse) (UniProt Q3UIL6)
# Rbm25 (mouse) = Rbm25 (mouse) (UniProt B2RY56)
# Spna2 (mouse) = Spna2 (mouse) (UniProt P16546)
# Cct2 (mouse) = Cct2 (mouse) (UniProt P80314)
# Las1l (mouse) = Las1l (mouse) (UniProt A2BE28)
# Uba1 (mouse) = Uba1 (mouse) (UniProt Q02053)
# Atxn10 (mouse) = Atxn10 (mouse) (UniProt P28658)
# Ruvbl1 (mouse) = Ruvbl1 (mouse) (UniProt P60122)
# Hspd1 (mouse) = Hspd1 (mouse) (UniProt P63038)
# Smarca5 (mouse) = Smarca5 (mouse) (UniProt Q91ZW3)
# Utf1 (mouse) = Utf1 (mouse) (UniProt Q6J1H4)
# Mcm4 (mouse) = Mcm4 (mouse) (UniProt P49717)
# Tet1 (mouse) = Tet1 (mouse) (UniProt Q3URK3)
# [1] = biological target: LOC100045999; Ran (mouse) (UniProt P62827)
# Dnmt3a (mouse) = Dnmt3a (mouse) (UniProt O88508)
# Ssr1 (mouse) = Ssr1 (mouse) (UniProt Q9CY50)
# Prdx6 (mouse) = Prdx6 (mouse) (UniProt O08709)
# Smc3 (mouse) = Smc3 (mouse) (UniProt Q9CW03)
# Eef2 (mouse) = Eef2 (mouse) (UniProt P58252)
# Pou5f1 (mouse) = Pou5f1 (mouse) (UniProt P20263)
# Tex10 (mouse) = Tex10 (mouse) (UniProt Q3URQ0)
# Akap8 (mouse) = Akap8 (mouse) (UniProt Q9DBR0)
# Cct8 (mouse) = Cct8 (mouse) (UniProt P42932)
# Mcm2 (mouse) = Mcm2 (mouse) (UniProt P97310)
# Rps6ka1 (mouse) = Rps6ka1 (mouse) (UniProt P18653)
# Pcbp1 (mouse), sequence (P60335 whole entry): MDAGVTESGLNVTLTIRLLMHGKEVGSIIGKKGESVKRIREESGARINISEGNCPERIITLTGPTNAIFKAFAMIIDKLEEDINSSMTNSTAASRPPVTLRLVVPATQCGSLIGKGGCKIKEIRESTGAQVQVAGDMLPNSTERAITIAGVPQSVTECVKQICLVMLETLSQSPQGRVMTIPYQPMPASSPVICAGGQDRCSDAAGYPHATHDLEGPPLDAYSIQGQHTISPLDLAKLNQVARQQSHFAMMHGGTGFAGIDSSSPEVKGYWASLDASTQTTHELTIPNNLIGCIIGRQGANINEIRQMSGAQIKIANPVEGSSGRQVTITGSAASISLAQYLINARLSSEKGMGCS
# Etl4 (mouse), sequence (A2AQ25 whole entry): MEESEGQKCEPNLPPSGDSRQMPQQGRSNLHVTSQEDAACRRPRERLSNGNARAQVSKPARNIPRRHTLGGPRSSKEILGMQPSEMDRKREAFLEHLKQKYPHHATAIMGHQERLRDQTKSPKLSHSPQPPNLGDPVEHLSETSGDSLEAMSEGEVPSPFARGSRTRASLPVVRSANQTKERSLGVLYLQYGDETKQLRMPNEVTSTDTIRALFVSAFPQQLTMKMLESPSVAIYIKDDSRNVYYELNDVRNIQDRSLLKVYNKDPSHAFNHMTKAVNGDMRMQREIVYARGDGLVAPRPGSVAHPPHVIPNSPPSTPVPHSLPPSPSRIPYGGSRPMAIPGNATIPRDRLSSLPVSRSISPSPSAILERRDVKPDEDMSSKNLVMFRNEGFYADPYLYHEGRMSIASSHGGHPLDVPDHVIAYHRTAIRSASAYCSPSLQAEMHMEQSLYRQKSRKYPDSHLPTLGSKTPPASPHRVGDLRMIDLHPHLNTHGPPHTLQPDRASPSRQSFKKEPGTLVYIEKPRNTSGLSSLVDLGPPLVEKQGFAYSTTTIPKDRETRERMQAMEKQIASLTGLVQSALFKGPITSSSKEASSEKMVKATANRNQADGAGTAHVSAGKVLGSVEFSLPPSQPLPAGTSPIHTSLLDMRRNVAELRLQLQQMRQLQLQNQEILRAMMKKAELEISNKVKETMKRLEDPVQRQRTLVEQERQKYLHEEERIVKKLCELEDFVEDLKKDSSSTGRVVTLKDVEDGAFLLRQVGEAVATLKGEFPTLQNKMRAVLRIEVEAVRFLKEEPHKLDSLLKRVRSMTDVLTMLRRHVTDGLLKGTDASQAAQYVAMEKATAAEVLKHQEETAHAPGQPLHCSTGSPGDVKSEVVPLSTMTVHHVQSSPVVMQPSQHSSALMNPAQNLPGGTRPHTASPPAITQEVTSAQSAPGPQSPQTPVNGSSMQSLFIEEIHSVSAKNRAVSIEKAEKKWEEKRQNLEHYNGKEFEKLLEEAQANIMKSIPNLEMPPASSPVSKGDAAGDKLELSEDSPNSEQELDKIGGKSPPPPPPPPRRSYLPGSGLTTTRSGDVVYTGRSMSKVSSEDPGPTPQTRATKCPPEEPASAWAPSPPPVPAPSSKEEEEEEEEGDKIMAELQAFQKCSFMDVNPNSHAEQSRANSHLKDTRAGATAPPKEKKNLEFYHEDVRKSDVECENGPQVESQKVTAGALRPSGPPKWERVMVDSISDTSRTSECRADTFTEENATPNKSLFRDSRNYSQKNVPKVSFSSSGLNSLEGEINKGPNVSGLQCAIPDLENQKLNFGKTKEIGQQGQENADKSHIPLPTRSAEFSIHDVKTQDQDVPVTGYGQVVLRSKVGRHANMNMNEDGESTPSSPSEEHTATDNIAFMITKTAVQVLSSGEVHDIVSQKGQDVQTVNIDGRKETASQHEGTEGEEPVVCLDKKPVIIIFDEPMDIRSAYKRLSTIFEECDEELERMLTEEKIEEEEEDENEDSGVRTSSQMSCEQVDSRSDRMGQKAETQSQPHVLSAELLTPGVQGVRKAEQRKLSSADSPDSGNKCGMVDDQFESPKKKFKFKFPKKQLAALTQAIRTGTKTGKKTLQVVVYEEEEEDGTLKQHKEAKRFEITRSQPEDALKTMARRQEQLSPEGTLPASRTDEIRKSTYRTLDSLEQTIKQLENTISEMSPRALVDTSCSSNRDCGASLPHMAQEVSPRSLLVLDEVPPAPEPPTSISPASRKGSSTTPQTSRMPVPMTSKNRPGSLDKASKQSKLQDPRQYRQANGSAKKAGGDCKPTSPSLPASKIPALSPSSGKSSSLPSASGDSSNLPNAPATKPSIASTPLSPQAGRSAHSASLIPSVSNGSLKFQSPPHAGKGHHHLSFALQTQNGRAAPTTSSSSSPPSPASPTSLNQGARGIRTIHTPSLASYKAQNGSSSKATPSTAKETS
# Las1l (mouse), sequence (A2BE28 whole entry): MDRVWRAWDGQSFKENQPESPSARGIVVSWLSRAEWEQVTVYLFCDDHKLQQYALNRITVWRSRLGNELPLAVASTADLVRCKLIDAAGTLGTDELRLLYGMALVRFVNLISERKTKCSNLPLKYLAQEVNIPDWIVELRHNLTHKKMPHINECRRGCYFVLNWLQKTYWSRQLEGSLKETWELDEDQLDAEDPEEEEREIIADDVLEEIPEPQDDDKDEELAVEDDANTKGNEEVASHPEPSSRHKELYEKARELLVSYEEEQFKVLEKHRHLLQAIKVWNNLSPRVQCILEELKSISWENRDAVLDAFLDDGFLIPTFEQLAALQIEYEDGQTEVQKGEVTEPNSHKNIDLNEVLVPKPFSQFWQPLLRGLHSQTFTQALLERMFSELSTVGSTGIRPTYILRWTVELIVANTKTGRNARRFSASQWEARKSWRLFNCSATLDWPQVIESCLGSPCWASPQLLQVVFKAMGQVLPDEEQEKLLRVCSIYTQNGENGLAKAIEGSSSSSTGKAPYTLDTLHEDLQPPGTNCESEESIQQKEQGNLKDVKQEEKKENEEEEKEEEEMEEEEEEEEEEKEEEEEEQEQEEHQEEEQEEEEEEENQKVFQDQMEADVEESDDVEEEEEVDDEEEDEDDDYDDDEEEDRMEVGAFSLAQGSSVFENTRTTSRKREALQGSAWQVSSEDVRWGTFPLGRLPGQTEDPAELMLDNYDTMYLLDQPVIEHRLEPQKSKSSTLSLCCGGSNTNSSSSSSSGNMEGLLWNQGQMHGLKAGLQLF
# Peg10 (mouse), sequence (Q7TN75 whole entry): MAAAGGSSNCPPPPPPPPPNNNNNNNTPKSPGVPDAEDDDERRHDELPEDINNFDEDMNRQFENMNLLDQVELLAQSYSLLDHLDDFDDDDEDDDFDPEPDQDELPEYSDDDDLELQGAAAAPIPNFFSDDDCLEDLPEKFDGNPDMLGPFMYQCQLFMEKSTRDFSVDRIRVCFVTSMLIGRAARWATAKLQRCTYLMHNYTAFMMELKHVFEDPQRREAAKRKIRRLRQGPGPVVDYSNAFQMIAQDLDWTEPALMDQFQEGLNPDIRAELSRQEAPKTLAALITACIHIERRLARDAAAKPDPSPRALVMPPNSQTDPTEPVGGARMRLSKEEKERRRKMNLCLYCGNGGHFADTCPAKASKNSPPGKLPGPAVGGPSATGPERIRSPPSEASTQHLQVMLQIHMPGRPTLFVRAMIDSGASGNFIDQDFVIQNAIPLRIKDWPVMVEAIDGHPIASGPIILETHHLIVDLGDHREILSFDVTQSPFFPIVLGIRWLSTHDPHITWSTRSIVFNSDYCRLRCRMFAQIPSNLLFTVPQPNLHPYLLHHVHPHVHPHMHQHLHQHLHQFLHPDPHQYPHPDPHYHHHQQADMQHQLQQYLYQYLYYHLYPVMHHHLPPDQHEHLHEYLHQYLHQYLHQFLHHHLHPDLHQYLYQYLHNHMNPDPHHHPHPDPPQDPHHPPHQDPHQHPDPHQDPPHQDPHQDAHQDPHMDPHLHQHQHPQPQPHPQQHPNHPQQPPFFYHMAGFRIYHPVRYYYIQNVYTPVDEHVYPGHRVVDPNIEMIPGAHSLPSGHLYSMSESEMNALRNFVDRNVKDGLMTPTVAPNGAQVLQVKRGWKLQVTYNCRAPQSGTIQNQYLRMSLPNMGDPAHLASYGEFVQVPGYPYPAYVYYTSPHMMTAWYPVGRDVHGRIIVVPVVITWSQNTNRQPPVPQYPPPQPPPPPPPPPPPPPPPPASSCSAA
# Mcm2 (mouse), sequence (P97310 2-904 limits assumed): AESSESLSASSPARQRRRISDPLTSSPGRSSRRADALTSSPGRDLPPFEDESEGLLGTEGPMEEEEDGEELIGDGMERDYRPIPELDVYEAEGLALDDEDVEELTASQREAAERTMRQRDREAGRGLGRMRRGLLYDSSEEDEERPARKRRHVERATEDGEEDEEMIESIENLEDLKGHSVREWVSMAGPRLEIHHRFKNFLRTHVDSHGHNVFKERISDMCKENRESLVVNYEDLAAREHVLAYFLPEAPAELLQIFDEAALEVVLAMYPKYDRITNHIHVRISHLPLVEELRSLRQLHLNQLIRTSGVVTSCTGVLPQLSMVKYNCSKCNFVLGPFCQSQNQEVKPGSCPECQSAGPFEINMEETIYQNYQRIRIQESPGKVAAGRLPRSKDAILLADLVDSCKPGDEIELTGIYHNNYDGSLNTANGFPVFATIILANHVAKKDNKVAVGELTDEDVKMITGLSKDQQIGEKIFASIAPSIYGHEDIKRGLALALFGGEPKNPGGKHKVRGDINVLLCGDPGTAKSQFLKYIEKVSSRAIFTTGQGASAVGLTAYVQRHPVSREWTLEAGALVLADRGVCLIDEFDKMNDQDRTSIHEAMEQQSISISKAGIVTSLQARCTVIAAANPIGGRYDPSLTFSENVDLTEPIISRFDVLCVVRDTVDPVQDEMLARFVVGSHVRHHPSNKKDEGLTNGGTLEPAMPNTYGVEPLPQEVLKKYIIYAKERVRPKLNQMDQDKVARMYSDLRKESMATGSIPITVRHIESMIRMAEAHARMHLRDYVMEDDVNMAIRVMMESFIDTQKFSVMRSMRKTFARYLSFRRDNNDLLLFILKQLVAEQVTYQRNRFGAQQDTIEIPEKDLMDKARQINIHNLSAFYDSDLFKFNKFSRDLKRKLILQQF
substance,measurement,setting,value
2x Flag tag only (control) (peptide),Nucleus peptide,Supt5h (mouse),1 peptides
same,Nucleus spectra,Supt5h (mouse),1 spectra
same,Nucleus peptide,Nol9 (mouse),1 peptides
same,Nucleus spectra,Nol9 (mouse),1 spectra
same,Nucleus peptide,Vdac1 (mouse),1 peptides
same,Nucleus spectra,Vdac1 (mouse),1 spectra
same,Nucleus peptide,Impdh2 (mouse),8 peptides
same,Nucleus spectra,Impdh2 (mouse),17 spectra
same,Nucleus peptide,Ranbp1 (mouse),1 peptides
same,Nucleus spectra,Ranbp1 (mouse),2 spectra
same,Nucleus peptide,Nup160 (mouse),6 peptides
same,Nucleus spectra,Nup160 (mouse),11 spectra
same,Nucleus peptide,Peg10 (mouse),2 peptides
same,Nucleus spectra,Peg10 (mouse),2 spectra
same,Nucleus peptide,Smarcad1 (mouse),1 peptides
same,Nucleus spectra,Smarcad1 (mouse),1 spectra
same,Nucleus peptide,Pcbp1 (mouse),2 peptides
same,Nucleus spectra,Pcbp1 (mouse),6 spectra
same,Nucleus peptide,Etl4 (mouse),0 peptides
same,Nucleus spectra,Etl4 (mouse),0 spectra
same,Nucleus peptide,Ywhae (mouse),1 peptides
same,Nucleus spectra,Ywhae (mouse),1 spectra
same,Nucleus peptide,Abce1 (mouse),3 peptides
same,Nucleus spectra,Abce1 (mouse),3 spectra
same,Nucleus peptide,Psmc2 (mouse),1 peptides
same,Nucleus spectra,Psmc2 (mouse),1 spectra
same,Nucleus peptide,Lmna (mouse),1 peptides
same,Nucleus spectra,Lmna (mouse),3 spectra
same,Nucleus peptide,Canx (mouse),2 peptides
same,Nucleus spectra,Canx (mouse),2 spectra
same,Nucleus peptide,Plekha7 (mouse),1 peptides
same,Nucleus spectra,Plekha7 (mouse),1 spectra
same,Nucleus peptide,Rbm25 (mouse),3 peptides
same,Nucleus spectra,Rbm25 (mouse),7 spectra
same,Nucleus peptide,Spna2 (mouse),5 peptides
same,Nucleus spectra,Spna2 (mouse),9 spectra
same,Nucleus peptide,Cct2 (mouse),2 peptides
same,Nucleus spectra,Cct2 (mouse),4 spectra
same,Nucleus peptide,Las1l (mouse),2 peptides
same,Nucleus spectra,Las1l (mouse),3 spectra
same,Nucleus peptide,Uba1 (mouse),3 peptides
same,Nucleus spectra,Uba1 (mouse),5 spectra
same,Nucleus peptide,Atxn10 (mouse),4 peptides
same,Nucleus spectra,Atxn10 (mouse),10 spectra
same,Nucleus peptide,Ruvbl1 (mouse),9 peptides
same,Nucleus spectra,Ruvbl1 (mouse),17 spectra
same,Nucleus peptide,Hspd1 (mouse),5 peptides
same,Nucleus spectra,Hspd1 (mouse),11 spectra
same,Nucleus peptide,Smarca5 (mouse),8 peptides
same,Nucleus spectra,Smarca5 (mouse),15 spectra
same,Nucleus peptide,Utf1 (mouse),4 peptides
same,Nucleus spectra,Utf1 (mouse),6 spectra
same,Nucleus peptide,Mcm4 (mouse),2 peptides
same,Nucleus spectra,Mcm4 (mouse),2 spectra
same,Nucleus peptide,Tet1 (mouse),1 peptides
same,Nucleus peptide,[1],1 peptides
same,Nucleus spectra,[1],2 spectra
same,Nucleus peptide,Dnmt3a (mouse),0 peptides
same,Nucleus spectra,Dnmt3a (mouse),0 spectra
same,Nucleus peptide,Ssr1 (mouse),0 peptides
same,Nucleus spectra,Ssr1 (mouse),0 spectra
same,Nucleus peptide,Prdx6 (mouse),1 peptides
same,Nucleus spectra,Prdx6 (mouse),1 spectra
same,Nucleus peptide,Smc3 (mouse),0 peptides
same,Nucleus spectra,Smc3 (mouse),0 spectra
same,Nucleus peptide,Eef2 (mouse),6 peptides
same,Nucleus spectra,Eef2 (mouse),9 spectra
same,Nucleus peptide,Pou5f1 (mouse),2 peptides
same,Nucleus spectra,Pou5f1 (mouse),3 spectra
same,Nucleus peptide,Tex10 (mouse),1 peptides
same,Nucleus spectra,Tex10 (mouse),3 spectra
same,Nucleus peptide,Akap8 (mouse),0 peptides
same,Nucleus spectra,Akap8 (mouse),0 spectra
same,Nucleus peptide,Cct8 (mouse),6 peptides
same,Nucleus spectra,Cct8 (mouse),10 spectra
same,Nucleus peptide,Mcm2 (mouse),4 peptides
same,Nucleus spectra,Mcm2 (mouse),5 spectra
same,Nucleus peptide,Rps6ka1 (mouse),2 peptides
same,Nucleus spectra,Rps6ka1 (mouse),3 spectra
human AID containing two tandem Flag tags (Flag-human AID) (from UniProt Q9GZX7 1-198) (enzyme),Nucleus peptide,Supt5h (mouse),6 peptides
same,Nucleus spectra,Supt5h (mouse),11 spectra
same,Nucleus peptide,Nol9 (mouse),6 peptides
same,Nucleus spectra,Nol9 (mouse),14 spectra
same,Nucleus peptide,Vdac1 (mouse),4 peptides
same,Nucleus spectra,Vdac1 (mouse),5 spectra
same,Nucleus peptide,Impdh2 (mouse),12 peptides
same,Nucleus spectra,Impdh2 (mouse),37 spectra
same,Nucleus peptide,Ranbp1 (mouse),2 peptides
same,Nucleus spectra,Ranbp1 (mouse),7 spectra
same,Nucleus peptide,Nup160 (mouse),12 peptides
same,Nucleus spectra,Nup160 (mouse),24 spectra
same,Nucleus peptide,Peg10 (mouse),3 peptides
same,Nucleus spectra,Peg10 (mouse),5 spectra
same,Nucleus peptide,Smarcad1 (mouse),5 peptides
same,Nucleus spectra,Smarcad1 (mouse),8 spectra
same,Nucleus peptide,Pcbp1 (mouse),5 peptides
same,Nucleus spectra,Pcbp1 (mouse),13 spectra
same,Nucleus peptide,Etl4 (mouse),7 peptides
same,Nucleus spectra,Etl4 (mouse),13 spectra
same,Nucleus peptide,Ywhae (mouse),3 peptides
same,Nucleus spectra,Ywhae (mouse),6 spectra
same,Nucleus peptide,Abce1 (mouse),7 peptides
same,Nucleus spectra,Abce1 (mouse),11 spectra
same,Nucleus peptide,Psmc2 (mouse),3 peptides
same,Nucleus spectra,Psmc2 (mouse),7 spectra
same,Nucleus peptide,Lmna (mouse),6 peptides
same,Nucleus spectra,Lmna (mouse),13 spectra
same,Nucleus peptide,Canx (mouse),7 peptides
same,Nucleus spectra,Canx (mouse),23 spectra
same,Nucleus peptide,Plekha7 (mouse),4 peptides
same,Nucleus spectra,Plekha7 (mouse),6 spectra
same,Nucleus peptide,Rbm25 (mouse),6 peptides
same,Nucleus spectra,Rbm25 (mouse),15 spectra
same,Nucleus peptide,Spna2 (mouse),14 peptides
same,Nucleus spectra,Spna2 (mouse),28 spectra
same,Nucleus peptide,Cct2 (mouse),8 peptides
same,Nucleus spectra,Cct2 (mouse),17 spectra
same,Nucleus peptide,Las1l (mouse),9 peptides
same,Nucleus spectra,Las1l (mouse),21 spectra
same,Nucleus peptide,Uba1 (mouse),10 peptides
same,Nucleus spectra,Uba1 (mouse),18 spectra
same,Nucleus peptide,Atxn10 (mouse),10 peptides
same,Nucleus spectra,Atxn10 (mouse),23 spectra
same,Nucleus peptide,Ruvbl1 (mouse),13 peptides
same,Nucleus spectra,Ruvbl1 (mouse),37 spectra
same,Nucleus peptide,Hspd1 (mouse),16 peptides
same,Nucleus spectra,Hspd1 (mouse),44 spectra
same,Nucleus peptide,Smarca5 (mouse),16 peptides
same,Nucleus spectra,Smarca5 (mouse),45 spectra
same,Nucleus peptide,Utf1 (mouse),7 peptides
same,Nucleus spectra,Utf1 (mouse),16 spectra
same,Nucleus peptide,Mcm4 (mouse),6 peptides
same,Nucleus spectra,Mcm4 (mouse),13 spectra
same,Nucleus peptide,Tet1 (mouse),14 peptides
same,Nucleus spectra,Tet1 (mouse),41 spectra
same,Nucleus peptide,[1],3 peptides
same,Nucleus spectra,[1],9 spectra
same,Nucleus peptide,Dnmt3a (mouse),6 peptides
same,Nucleus spectra,Dnmt3a (mouse),13 spectra
same,Nucleus peptide,Ssr1 (mouse),3 peptides
same,Nucleus spectra,Ssr1 (mouse),9 spectra
same,Nucleus peptide,Prdx6 (mouse),3 peptides
same,Nucleus spectra,Prdx6 (mouse),3 spectra
same,Nucleus peptide,Smc3 (mouse),12 peptides
same,Nucleus spectra,Smc3 (mouse),23 spectra
same,Nucleus peptide,Eef2 (mouse),13 peptides
same,Nucleus spectra,Eef2 (mouse),24 spectra
same,Nucleus peptide,Pou5f1 (mouse),4 peptides
same,Nucleus spectra,Pou5f1 (mouse),13 spectra
same,Nucleus peptide,Tex10 (mouse),6 peptides
same,Nucleus spectra,Tex10 (mouse),12 spectra
same,Nucleus peptide,Akap8 (mouse),4 peptides
same,Nucleus spectra,Akap8 (mouse),12 spectra
same,Nucleus peptide,Cct8 (mouse),12 peptides
same,Nucleus spectra,Cct8 (mouse),31 spectra
same,Nucleus peptide,Mcm2 (mouse),9 peptides
same,Nucleus spectra,Mcm2 (mouse),21 spectra
same,Nucleus peptide,Rps6ka1 (mouse),3 peptides
same,Nucleus spectra,Rps6ka1 (mouse),7 spectra
